Data on one molecule can be found in patent publication US20260242447A1 (CREATIVE BIOTHERAPEUTICS, published 2026).

One may read the IC50 as the concentration that gives 50% inhibition. One may read the Kd as the concentration at which binding is half-saturated.

For test [1], the target named is T1, GRP78 (soluble / recombinant protein) (UniProt P11021 19-654).
For test [2], the target named is T1, GRP78 (soluble / recombinant protein). The experiment in a line: method not stated.

T1 sequence (P11021 19-654 limits assumed): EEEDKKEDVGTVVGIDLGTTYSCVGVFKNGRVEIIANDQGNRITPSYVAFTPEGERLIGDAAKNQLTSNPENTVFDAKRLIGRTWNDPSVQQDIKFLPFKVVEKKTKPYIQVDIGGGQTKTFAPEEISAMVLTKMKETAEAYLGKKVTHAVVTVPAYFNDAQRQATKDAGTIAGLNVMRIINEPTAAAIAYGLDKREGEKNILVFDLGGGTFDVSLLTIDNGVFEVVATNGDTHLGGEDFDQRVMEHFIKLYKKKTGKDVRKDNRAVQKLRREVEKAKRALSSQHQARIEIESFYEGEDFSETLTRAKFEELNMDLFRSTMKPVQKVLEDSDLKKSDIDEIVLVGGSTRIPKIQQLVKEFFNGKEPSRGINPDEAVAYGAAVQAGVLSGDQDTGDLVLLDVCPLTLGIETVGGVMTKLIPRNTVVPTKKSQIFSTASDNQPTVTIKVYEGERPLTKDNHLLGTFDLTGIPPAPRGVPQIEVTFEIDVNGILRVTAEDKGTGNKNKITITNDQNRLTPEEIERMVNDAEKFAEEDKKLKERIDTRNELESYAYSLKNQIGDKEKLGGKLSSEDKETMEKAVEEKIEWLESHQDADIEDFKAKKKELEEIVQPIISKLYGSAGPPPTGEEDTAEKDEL

B1: K5 (5th kringle domain of human plasminogen) (other)
chain: SEEDCMFGNGKGYRGKRATTVTGTPCQDWAAQEPHRHSIFTPETNPRAGLEKNYCRNPDGDVGGPWCYTTNPRKLYDYCDVPQCAAPKS
notes: also called kringle 5
On to B1, for which the IC50 in test [1] came to 460 nM. In addition, in test [2], the Kd came out at 0.6 nM.
